T1: human BTLA (human, UniProt Q7Z6A9 31-289)
T1 construct: also called hBTLA; HEK293.hBTLA
T1 sequence: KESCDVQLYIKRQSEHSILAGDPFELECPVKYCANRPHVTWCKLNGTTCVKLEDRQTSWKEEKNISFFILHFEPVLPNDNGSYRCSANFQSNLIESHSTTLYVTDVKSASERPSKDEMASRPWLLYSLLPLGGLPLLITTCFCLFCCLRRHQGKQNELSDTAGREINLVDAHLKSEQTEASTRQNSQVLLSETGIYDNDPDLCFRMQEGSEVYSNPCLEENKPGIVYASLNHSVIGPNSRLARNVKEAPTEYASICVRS


Target: T1, human BTLA
Test: flow cytometry, HEK293 cells overexpressing human BTLA
Experimental: HEK293 cells overexpressing human BTLA and Expi293 cells overexpressing cynomolus BTLA were incubated with different concentrations of humanized anti-BTLA antibodies. Anti-BTLA antibody binding to target cells were quantified with an AF647-conjugated anti-human IgG Fc secondary antibody by flow cytometry.

| binding result | Binder |
| --- | --- |
| binds | HFB6-5hz19-hG1 (antibody, human IgG1, V domains shown, Humanized variant of HFB6-5, human IgG1 (hG1)) VH: QVQLVQSGAEVKKPGSSVKVSCKASGVNIKDTYMYWVRQAPGQGLEWIGRIDPANGYARYAQKFQGRATITADESTSTAYMELSSLRSEDTAVYYCAVYDGYYESFDVWGQGTLVTVSS VL: DIVMTQSPDSLAVSLGERATINCKSSQSLLDSDGKTYLNWLQQKPGQSPKRLIYLVSKLDSGVPDRFSGSGSGTDFTLTISSVQAEDLAVYYCWQGTLFPRTFGQGTKLEIK |
| binds | HFB6-5hz23-hG1 (antibody, human IgG1, V domains shown, Humanized variant of HFB6-5, human IgG1 (hG1)) VH: QVQLQESGPGLVKPSGTLSLTCAASGVNIKDTYMYWVRQPPGKGLEWIGRIDPANGYTRYNPSFKSRATISADKSKNQASLKLSSVTAADTAVYYCAVYDGYYESFDVWGQGTLVTVSS VL: DIVMTQSPDSLAVSLGERATINCKSSQSLLDSDGKTYLNWLQQKPGQSPKRLIYLVSKLDSGVPDRFSGSGSGTDFTLTISSVQAEDLAVYYCWQGTLFPRTFGQGTKLEIK |
| binds | HFB6-5hz24-hG1 (antibody, human IgG1, V domains shown, Humanized variant of HFB6-5, human IgG1 (hG1)) VH: EVQLVQSGAEVKKPGESLKISCKGSGVNIKDTYMYWVRQMPGKGLEWIGRIDPANGYTRYSPSFQGQVTISADKSISTAYLQLSSLKASDTAMYYCAVYDGYYESFDVWGQGTLVTVSS VL: DIVMTQSPDSLAVSLGERATINCKSSQSLLDSDGKTYLNWLQQKPGQSPKRLIYLVSKLDSGVPDRFSGSGSGTDFTLTISSVQAEDLAVYYCWQGTLFPRTFGQGTKLEIK |
| binds | HFB6-5hz20-hG1 (antibody, human IgG1, V domains shown, Humanized variant of HFB6-5, human IgG1 (hG1)) VH: QVQLVQSGAEVKKPGASVKVSCKASGVNIKDTYMYWVRQAPGQGLEWIGRIDPANGYTRYAQKFQGRATITADTSTSTVYMELSSLRSEDTAVYYCAVYDGYYESFDVWGQGTLVTVSS VL: DIVMTQSPDSLAVSLGERATINCKSSQSLLDSDGKTYLNWLQQKPGQSPKRLIYLVSKLDSGVPDRFSGSGSGTDFTLTISSVQAEDLAVYYCWQGTLFPRTFGQGTKLEIK |
| binds | HFB6-4hz1-hG1 (antibody, V domains shown, Humanized variant of HFB6-4, human IgG1 (hG1); Only VH and VL are tied to the name) VH: QVQLVQSGAEVKKPGSSVKVSCKTSGFNIKDTYIHWVRQAPGQGLEWIGRNDPANGNTKYAQKFQGRATITADESTSTAYMELSSLRSEDTAVYYCASYEGYYERFGYWGQGTLVTVSS VL: DIQMTQSPSSLSASVGDRVTITCRSSQSLLDRDGKSYLNWLQQKPGKAPKRLIYLVSKLDSGVPSRFSGSGSGTDFTLTISSLQPEDFATYYCWQDTHFPYTFGQGTKLEIK |
| binds | HFB6-4hz5-hG1 (antibody, human IgG1, V domains shown, Humanized variant of HFB6-4, human IgG1 (hG1)) VH: QVQLQESGPGLVKPSGTLSLTCAVSGFNIKDTYIHWVRQPPGKGLEWIGRNDPANGNTKYNPSFKSRATISADKSKNQASLKLSSVTAADTAVYYCASYEGYYERFGYWGQGTLVTVSS VL: DIQMTQSPSSLSASVGDRVTITCRSSQSLLDRDGKSYLNWLQQKPGKAPKRLIYLVSKLDSGVPSRFSGSGSGTDFTLTISSLQPEDFATYYCWQDTHFPYTFGQGTKLEIK |
| binds | HFB6-4hz6-hG1 (antibody, human IgG1, V domains shown, Humanized variant of HFB6-4, human IgG1 (hG1)) VH: EVQLVQSGAEVKKPGESLKISCKTSGFNIKDTYIHWVRQMPGKGLEWIGRNDPANGNTKYSPSFQGQVTISADKSISTAYLQLSSLKASDTAMYYCASYEGYYERFGYWGQGTLVTVSS VL: DIQMTQSPSSLSASVGDRVTITCRSSQSLLDRDGKSYLNWLQQKPGKAPKRLIYLVSKLDSGVPSRFSGSGSGTDFTLTISSLQPEDFATYYCWQDTHFPYTFGQGTKLEIK |
| binds | HFB6-4hz7-hG1 (antibody, human IgG1, V domains shown, Humanized variant of HFB6-4, human IgG1 (hG1)) VH: QVQLVQSGAEVKKPGSSVKVSCKTSGFNIKDTYIHWVRQAPGQGLEWIGRNDPANGNTKYAQKFQGRATITADESTSTAYMELSSLRSEDTAVYYCASYEGYYERFGYWGQGTLVTVSS VL: DVVMTQSPLSLPVTLGQPASISCRSSQSLLDRDGKTYLNWLQQRPGQSPRRLIYLVSKRDSGVPDRFSGSGSGTDFTLKISRVEAEDVGVYYCWQDTHFPYTFGQGTKLEIK |
| binds | HFB6-4hz3-hG1 (antibody, human IgG1, V domains shown, Humanized variant of HFB6-4, human IgG1 (hG1)) VH: EVQLVESGGGLVQPGRSLRLSCTTSGFNIKDTYIHWFRQAPGKGLEWVGRNDPANGNTKYTASFKGRATISADGSKSIAYLQMNSLKTEDTAVYYCASYEGYYERFGYWGQGTLVTVSS VL: DIQMTQSPSSLSASVGDRVTITCRSSQSLLDRDGKSYLNWLQQKPGKAPKRLIYLVSKLDSGVPSRFSGSGSGTDFTLTISSLQPEDFATYYCWQDTHFPYTFGQGTKLEIK |
| binds | HFB6-4hz2-hG1 (antibody, human IgG1, V domains shown, Humanized variant of HFB6-4, human IgG1 (hG1)) VH: QVQLVQSGAEVKKPGASVKVSCKTSGFNIKDTYIHWVRQAPGQGLEWIGRNDPANGNTKYAQKFQGRVTMTADTSTSTVYMELSSLRSEDTAVYYCASYEGYYERFGYWGQGTLVTVSS VL: DIQMTQSPSSLSASVGDRVTITCRSSQSLLDRDGKSYLNWLQQKPGKAPKRLIYLVSKLDSGVPSRFSGSGSGTDFTLTISSLQPEDFATYYCWQDTHFPYTFGQGTKLEIK |
| binds | HFB6-4hz8-hG1 (antibody, human IgG1, V domains shown, Humanized variant of HFB6-4, human IgG1 (hG1)) VH: QVQLVQSGAEVKKPGASVKVSCKTSGFNIKDTYIHWVRQAPGQGLEWIGRNDPANGNTKYAQKFQGRVTMTADTSTSTVYMELSSLRSEDTAVYYCASYEGYYERFGYWGQGTLVTVSS VL: DVVMTQSPLSLPVTLGQPASISCRSSQSLLDRDGKTYLNWLQQRPGQSPRRLIYLVSKRDSGVPDRFSGSGSGTDFTLKISRVEAEDVGVYYCWQDTHFPYTFGQGTKLEIK |
| binds | HFB6-4hz4-hG1 (antibody, human IgG1, V domains shown, Humanized variant of HFB6-4, human IgG1 (hG1)) VH: EVQLVESGGGLVQPGGSLKLSCATSGFNIKDTYIHWVRQASGKGLEWIGRNDPANGNTKYAASFKGRATISADDSKNTAYLQLNSLKTEDTAVYYCASYEGYYERFGYWGQGTLVTVSS VL: DIQMTQSPSSLSASVGDRVTITCRSSQSLLDRDGKSYLNWLQQKPGKAPKRLIYLVSKLDSGVPSRFSGSGSGTDFTLTISSLQPEDFATYYCWQDTHFPYTFGQGTKLEIK |
| binds | HFB6-5-hG1 (human-mouse chimeric monoclonal antibody) (antibody, human IgG1, kappa, V domains shown, also called HFB-5; HFB6-5 parental antibody) VH: EVQLQQSGAELVKPGASVKLSCTASGVNIKDTYMYWVKQRPEQGLEWIGRIDPANGYTRYDPKFQGKATITADTSSNTAHLQLSSLTSEDAAVYYCAVYDGYYESFDVWGAGTTVTVSS VL: not shown |
| binds | HFB6-4hz9-hG1 (antibody, human IgG1, V domains shown, Humanized variant of HFB6-4, human IgG1 (hG1)) VH: EVQLVESGGGLVQPGRSLRLSCTTSGFNIKDTYIHWFRQAPGKGLEWVGRNDPANGNTKYTASFKGRATISADGSKSIAYLQMNSLKTEDTAVYYCASYEGYYERFGYWGQGTLVTVSS VL: DVVMTQSPLSLPVTLGQPASISCRSSQSLLDRDGKTYLNWLQQRPGQSPRRLIYLVSKRDSGVPDRFSGSGSGTDFTLKISRVEAEDVGVYYCWQDTHFPYTFGQGTKLEIK |
| binds | HFB6-4hz10-hG1 (antibody, human IgG1, V domains shown, Humanized variant of HFB6-4, human IgG1 (hG1)) VH: EVQLVESGGGLVQPGGSLKLSCATSGFNIKDTYIHWVRQASGKGLEWIGRNDPANGNTKYAASFKGRATISADDSKNTAYLQLNSLKTEDTAVYYCASYEGYYERFGYWGQGTLVTVSS VL: DVVMTQSPLSLPVTLGQPASISCRSSQSLLDRDGKTYLNWLQQRPGQSPRRLIYLVSKRDSGVPDRFSGSGSGTDFTLKISRVEAEDVGVYYCWQDTHFPYTFGQGTKLEIK |
| binds | HFB6-5hz16-hG1 (antibody, human IgG1, V domains shown, Humanized variant of HFB6-5, human IgG1 (hG1)) VH: EVQLVESGGGLVQPGGSLKLSCAASGVNIKDTYMYWVRQASGKGLEWIGRIDPANGYTRYAASFKGRATISADDSKNTAYLQLNSLKTEDTAVYYCAVYDGYYESFDVWGQGTLVTVSS VL: EIVLTQSPGTLSVSPGERATISCRSSQSLLDSDGKTYLNWLQQKPGQAPRRLIYLVSKRDTGVPDRFSGSGSGTDFTLTISRVEPEDFAVYYCWQGTLFPRTFGQGTKLEIK |
| binds | HFB6-5hz21-hG1 (antibody, human IgG1, V domains shown, Humanized variant of HFB6-5, human IgG1 (hG1)) VH: EVQLVESGGGLVQPGRSLRLSCTASGVNIKDTYMYWVRQAPGKGLEWVGRIDPANGYTRYTASFKGRATISADGSKSIAYLQMNSLKTEDTAVYYCAVYDGYYESFDVWGQGTLVTVSS VL: DIVMTQSPDSLAVSLGERATINCKSSQSLLDSDGKTYLNWLQQKPGQSPKRLIYLVSKLDSGVPDRFSGSGSGTDFTLTISSVQAEDLAVYYCWQGTLFPRTFGQGTKLEIK |
| binds | HFB6-5hz18-hG1 (antibody, human IgG1, V domains shown, Humanized variant of HFB6-5, human IgG1 (hG1)) VH: EVQLVQSGAEVKKPGESLKISCKGSGVNIKDTYMYWVRQMPGKGLEWIGRIDPANGYTRYSPSFQGQVTISADKSISTAYLQLSSLKASDTAMYYCAVYDGYYESFDVWGQGTLVTVSS VL: EIVLTQSPGTLSVSPGERATISCRSSQSLLDSDGKTYLNWLQQKPGQAPRRLIYLVSKRDTGVPDRFSGSGSGTDFTLTISRVEPEDFAVYYCWQGTLFPRTFGQGTKLEIK |
| binds | HFB6-5hz17-hG1 (antibody, human IgG1, V domains shown, Humanized variant of HFB6-5, human IgG1 (hG1)) VH: QVQLQESGPGLVKPSGTLSLTCAASGVNIKDTYMYWVRQPPGKGLEWIGRIDPANGYTRYNPSFKSRATISADKSKNQASLKLSSVTAADTAVYYCAVYDGYYESFDVWGQGTLVTVSS VL: EIVLTQSPGTLSVSPGERATISCRSSQSLLDSDGKTYLNWLQQKPGQAPRRLIYLVSKRDTGVPDRFSGSGSGTDFTLTISRVEPEDFAVYYCWQGTLFPRTFGQGTKLEIK |
| binds | HFB6-5hz22-hG1 (antibody, human IgG1, V domains shown, Humanized variant of HFB6-5, human IgG1 (hG1)) VH: EVQLVESGGGLVQPGGSLKLSCAASGVNIKDTYMYWVRQASGKGLEWIGRIDPANGYTRYAASFKGRATISADDSKNTAYLQLNSLKTEDTAVYYCAVYDGYYESFDVWGQGTLVTVSS VL: DIVMTQSPDSLAVSLGERATINCKSSQSLLDSDGKTYLNWLQQKPGQSPKRLIYLVSKLDSGVPDRFSGSGSGTDFTLTISSVQAEDLAVYYCWQGTLFPRTFGQGTKLEIK |
